Tests used:
amylin = amylin (UniProt P10997); experiment: cell-based or functional assay
insulin = experiment: cell-based or functional assay
Aβ42 = Aβ42 (UniProt P05067); experiment: cell-based or functional assay
lysozyme = experiment: cell-based or functional assay
Aβ42 oligomers, P05067 = experiment: ELISA, amyloid coated at 1 µg/well, His-tagged ZR detected with HRP-linked antibody
amylin fibers, P10997 = molecular target: T1, amylin fibers, P10997; experiment: as above
T1 chain: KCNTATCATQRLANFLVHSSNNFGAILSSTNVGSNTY

Aβ42 fibers, P05067 = experiment: as above
Aβ42 fibers, P05067, sequence (P05067 672-713 limits assumed): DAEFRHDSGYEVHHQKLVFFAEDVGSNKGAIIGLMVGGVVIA

Aβ42 monomers, P05067 = experiment: as above
Aβ42 monomers, P05067, sequence (P05067 672-713 limits assumed): as above

amylin oligomers, P10997 = molecular target: T2, amylin oligomers, P10997; experiment: as above
T2 chain: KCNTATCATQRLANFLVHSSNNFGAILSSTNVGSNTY

amylin monomers, P10997 = molecular target: T3, amylin monomers, P10997; experiment: as above
T3 chain: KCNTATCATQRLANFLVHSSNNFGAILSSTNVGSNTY

Aβ42, sequence (P05067 672-713 limits assumed): as the sequence (P05067 672-713 limits assumed) above
Aβ42 oligomers, P05067, sequence (P05067 672-713 limits assumed): as the sequence (P05067 672-713 limits assumed) above

Binder: SFFNNKR [ZR polypeptide (SEQ ID NO. 2)]
- ThT fluorescence value, amylin with ZR at a molar ratio of 1:1 (amylin alone: 38000) (amylin): 41000
- ThT fluorescence value, amylin with ZR at a molar ratio of 1:10 (amylin alone: 38000) (amylin): 43000
- cell activity of SH-SY5Y cells (MTT), Amylin:ZR=1:1 group (Amylin group: 61%) (amylin): 70%
- cell activity of SH-SY5Y cells (MTT), Amylin:ZR=1:10 group (Amylin group: 61%) (amylin): 75%
- cytotoxicity inhibited, molar ratio 1:10 (amylin): 45.4%
- ThT fluorescence value, insulin with ZR at a molar ratio of 1:1 (insulin alone: 305000) (insulin): 305000
- ThT fluorescence value, insulin with ZR at a molar ratio of 1:10 (insulin alone: 305000) (insulin): 310000
- cell activity of SH-SY5Y cells (MTT), insulin:ZR=1:1 group (insulin group: 77%) (insulin): 92%
- cell activity of SH-SY5Y cells (MTT), insulin:ZR=1:5 group (insulin group: 77%) (insulin): 102%
- cytotoxicity inhibited, molar ratio 1:5 (insulin): 89.8%
- ThT fluorescence value, Aβ42 with ZR at a molar ratio of 1:1 (Aβ42 alone: 26500) (Aβ42): 22000
- ThT fluorescence value, Aβ42 with ZR at a molar ratio of 1:10 (Aβ42 alone: 26500) (Aβ42): 17000
- cell activity of SH-SY5Y cells (MTT), Aβ:ZR=1:0.5 group (Aβ42 group: 71%) (Aβ42): 80%
- cell activity of SH-SY5Y cells (MTT), Aβ:ZR=1:1 group (Aβ42 group: 71%) (Aβ42): 82%
- cytotoxicity inhibited, molar ratio 1:1 (Aβ42): 37.8%
- ThT fluorescence value, lysozyme with ZR at a molar ratio of 1:1 (lysozyme alone: 310000) (lysozyme): 220000
- ThT fluorescence value, lysozyme with ZR at a molar ratio of 1:10 (lysozyme alone: 310000) (lysozyme): 170000
- cell activity of SH-SY5Y cells (MTT), lysozyme:ZR=1:1 group (lysozyme group: 55%) (lysozyme): 85%
- cell activity of SH-SY5Y cells (MTT), lysozyme:ZR=1:10 group (lysozyme group: 55%) (lysozyme): 93%
- cytotoxicity inhibited, molar ratio 1:10 (lysozyme): 118%

Binder: SFFNNKR (modifications not checked) [histidine-tagged ZR polypeptide (SEQ ID NO. 2)]
- OD450 (Aβ42 oligomers, P05067): 0.38
- OD450 (amylin fibers, P10997): 0.18
- OD450 (Aβ42 fibers, P05067): 0.35
- OD450 (Aβ42 monomers, P05067): 0.34
- OD450 (amylin oligomers, P10997): 0.5
- OD450 (amylin monomers, P10997): 0.41

Source: US20190330271A1
